The text below walks through data of paper PMC11790958.

For this data set, the target named is condensin I tetramer lacking NCAPG (CIΔG) (Homo sapiens, UniProt O95347;Q9NTJ3;Q15003;Q15021 1-1197;1-1288;1-741;1-1401). As to the kind of experiment: EMSA; 2.5 mM Mg2+; EMSA: 50 nM DNA, 20 mM HEPES pH 8, 150 mM KCl, 2.5 mM MgCl2, 10% glycerol, 1 mM DTT, on ice 20 min; 2% agarose, 0.5x TB. The settings on record: protein: recombinant; tags: Strep; copies: 1;1;1;1; label: 5' Cy5 on reverse strand (S2); blunt. Background: A gel shift assay detects complexes by their altered migration in electrophoresis.
condensin I tetramer lacking NCAPG (CIΔG), sequence (O95347 whole entry, stated change not applied, chain 1 of 4): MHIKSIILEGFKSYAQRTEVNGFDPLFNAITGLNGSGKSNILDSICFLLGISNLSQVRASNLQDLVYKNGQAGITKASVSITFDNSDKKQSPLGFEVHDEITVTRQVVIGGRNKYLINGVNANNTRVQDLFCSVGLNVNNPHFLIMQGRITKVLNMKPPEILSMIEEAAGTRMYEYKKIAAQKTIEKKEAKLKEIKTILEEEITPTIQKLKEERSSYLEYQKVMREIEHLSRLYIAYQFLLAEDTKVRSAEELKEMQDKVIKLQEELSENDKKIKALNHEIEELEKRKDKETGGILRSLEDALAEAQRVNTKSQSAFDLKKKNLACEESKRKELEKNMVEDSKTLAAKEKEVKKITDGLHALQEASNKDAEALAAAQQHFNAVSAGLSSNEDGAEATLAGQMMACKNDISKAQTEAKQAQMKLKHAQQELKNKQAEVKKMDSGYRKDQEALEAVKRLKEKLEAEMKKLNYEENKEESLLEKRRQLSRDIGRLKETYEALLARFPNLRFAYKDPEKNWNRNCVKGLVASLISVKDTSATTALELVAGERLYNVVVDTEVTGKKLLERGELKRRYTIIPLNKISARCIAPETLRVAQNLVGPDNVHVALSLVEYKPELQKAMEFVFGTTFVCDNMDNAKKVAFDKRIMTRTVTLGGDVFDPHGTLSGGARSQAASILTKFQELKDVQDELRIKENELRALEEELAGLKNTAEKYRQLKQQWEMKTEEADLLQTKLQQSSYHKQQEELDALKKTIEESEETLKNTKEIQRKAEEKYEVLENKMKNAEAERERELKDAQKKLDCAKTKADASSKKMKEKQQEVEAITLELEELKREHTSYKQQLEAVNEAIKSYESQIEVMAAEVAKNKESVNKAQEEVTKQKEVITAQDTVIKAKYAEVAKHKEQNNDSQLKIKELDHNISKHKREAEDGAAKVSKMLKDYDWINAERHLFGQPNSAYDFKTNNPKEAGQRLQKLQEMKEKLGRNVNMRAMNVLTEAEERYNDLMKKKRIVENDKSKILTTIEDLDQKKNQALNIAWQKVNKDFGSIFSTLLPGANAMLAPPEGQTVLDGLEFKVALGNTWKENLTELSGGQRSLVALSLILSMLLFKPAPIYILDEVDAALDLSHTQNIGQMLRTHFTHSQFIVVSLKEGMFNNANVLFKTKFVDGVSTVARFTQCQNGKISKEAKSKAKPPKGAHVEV
condensin I tetramer lacking NCAPG (CIΔG), sequence (Q9NTJ3 whole entry, stated change not applied, chain 2 of 4): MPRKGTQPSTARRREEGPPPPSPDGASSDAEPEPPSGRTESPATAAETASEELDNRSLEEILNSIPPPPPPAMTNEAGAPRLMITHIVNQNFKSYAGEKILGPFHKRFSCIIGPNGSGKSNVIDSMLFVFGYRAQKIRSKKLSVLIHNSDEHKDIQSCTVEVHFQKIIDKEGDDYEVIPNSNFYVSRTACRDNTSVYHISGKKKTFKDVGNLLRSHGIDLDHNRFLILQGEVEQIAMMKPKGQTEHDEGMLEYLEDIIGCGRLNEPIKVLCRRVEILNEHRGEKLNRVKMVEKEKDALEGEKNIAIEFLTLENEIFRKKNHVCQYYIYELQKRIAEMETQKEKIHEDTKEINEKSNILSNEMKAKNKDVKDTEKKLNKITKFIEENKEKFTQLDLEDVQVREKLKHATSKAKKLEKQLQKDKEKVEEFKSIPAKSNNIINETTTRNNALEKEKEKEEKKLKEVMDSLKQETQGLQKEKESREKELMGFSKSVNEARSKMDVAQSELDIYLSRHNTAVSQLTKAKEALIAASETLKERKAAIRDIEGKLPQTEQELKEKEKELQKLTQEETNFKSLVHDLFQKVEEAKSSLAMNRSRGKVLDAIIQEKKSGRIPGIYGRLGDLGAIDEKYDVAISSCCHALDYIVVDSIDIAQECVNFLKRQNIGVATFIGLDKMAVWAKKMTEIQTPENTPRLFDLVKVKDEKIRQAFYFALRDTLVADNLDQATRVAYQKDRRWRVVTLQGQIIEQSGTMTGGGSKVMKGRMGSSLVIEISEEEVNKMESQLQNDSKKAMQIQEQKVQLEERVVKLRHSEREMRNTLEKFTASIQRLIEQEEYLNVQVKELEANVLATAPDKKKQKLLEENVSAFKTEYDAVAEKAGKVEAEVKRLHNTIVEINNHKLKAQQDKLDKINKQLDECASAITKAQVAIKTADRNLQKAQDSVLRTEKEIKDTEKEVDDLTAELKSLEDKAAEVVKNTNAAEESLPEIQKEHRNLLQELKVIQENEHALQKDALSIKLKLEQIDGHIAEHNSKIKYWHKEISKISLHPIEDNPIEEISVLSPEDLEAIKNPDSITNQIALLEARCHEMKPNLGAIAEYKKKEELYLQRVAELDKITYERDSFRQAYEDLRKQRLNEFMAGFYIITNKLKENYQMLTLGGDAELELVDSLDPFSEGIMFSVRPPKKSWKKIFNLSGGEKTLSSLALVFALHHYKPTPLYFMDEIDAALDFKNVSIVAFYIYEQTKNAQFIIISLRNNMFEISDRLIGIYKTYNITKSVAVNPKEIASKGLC
condensin I tetramer lacking NCAPG (CIΔG), sequence (Q15003 whole entry, stated change not applied, chain 3 of 4): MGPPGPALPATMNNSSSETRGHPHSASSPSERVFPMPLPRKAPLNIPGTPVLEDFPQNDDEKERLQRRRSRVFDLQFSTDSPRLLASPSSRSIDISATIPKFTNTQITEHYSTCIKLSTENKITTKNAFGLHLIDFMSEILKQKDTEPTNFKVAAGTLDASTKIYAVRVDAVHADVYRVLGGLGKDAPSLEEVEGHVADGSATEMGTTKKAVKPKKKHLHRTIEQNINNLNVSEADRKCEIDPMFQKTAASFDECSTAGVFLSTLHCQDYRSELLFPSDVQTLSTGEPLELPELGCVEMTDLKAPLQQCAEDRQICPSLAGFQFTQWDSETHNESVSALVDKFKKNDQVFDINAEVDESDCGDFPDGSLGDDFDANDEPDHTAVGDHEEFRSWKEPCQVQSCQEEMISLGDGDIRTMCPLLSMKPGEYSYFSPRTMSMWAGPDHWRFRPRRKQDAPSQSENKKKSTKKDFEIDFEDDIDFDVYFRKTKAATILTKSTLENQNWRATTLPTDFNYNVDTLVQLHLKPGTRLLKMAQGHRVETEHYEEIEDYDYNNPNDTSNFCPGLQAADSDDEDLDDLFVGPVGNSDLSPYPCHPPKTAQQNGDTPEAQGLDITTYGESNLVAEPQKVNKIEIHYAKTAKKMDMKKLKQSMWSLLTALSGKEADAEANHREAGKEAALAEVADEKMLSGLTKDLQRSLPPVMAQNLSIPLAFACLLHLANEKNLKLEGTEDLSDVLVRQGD
condensin I tetramer lacking NCAPG (CIΔG), sequence (Q15021 whole entry, stated change not applied, chain 4 of 4): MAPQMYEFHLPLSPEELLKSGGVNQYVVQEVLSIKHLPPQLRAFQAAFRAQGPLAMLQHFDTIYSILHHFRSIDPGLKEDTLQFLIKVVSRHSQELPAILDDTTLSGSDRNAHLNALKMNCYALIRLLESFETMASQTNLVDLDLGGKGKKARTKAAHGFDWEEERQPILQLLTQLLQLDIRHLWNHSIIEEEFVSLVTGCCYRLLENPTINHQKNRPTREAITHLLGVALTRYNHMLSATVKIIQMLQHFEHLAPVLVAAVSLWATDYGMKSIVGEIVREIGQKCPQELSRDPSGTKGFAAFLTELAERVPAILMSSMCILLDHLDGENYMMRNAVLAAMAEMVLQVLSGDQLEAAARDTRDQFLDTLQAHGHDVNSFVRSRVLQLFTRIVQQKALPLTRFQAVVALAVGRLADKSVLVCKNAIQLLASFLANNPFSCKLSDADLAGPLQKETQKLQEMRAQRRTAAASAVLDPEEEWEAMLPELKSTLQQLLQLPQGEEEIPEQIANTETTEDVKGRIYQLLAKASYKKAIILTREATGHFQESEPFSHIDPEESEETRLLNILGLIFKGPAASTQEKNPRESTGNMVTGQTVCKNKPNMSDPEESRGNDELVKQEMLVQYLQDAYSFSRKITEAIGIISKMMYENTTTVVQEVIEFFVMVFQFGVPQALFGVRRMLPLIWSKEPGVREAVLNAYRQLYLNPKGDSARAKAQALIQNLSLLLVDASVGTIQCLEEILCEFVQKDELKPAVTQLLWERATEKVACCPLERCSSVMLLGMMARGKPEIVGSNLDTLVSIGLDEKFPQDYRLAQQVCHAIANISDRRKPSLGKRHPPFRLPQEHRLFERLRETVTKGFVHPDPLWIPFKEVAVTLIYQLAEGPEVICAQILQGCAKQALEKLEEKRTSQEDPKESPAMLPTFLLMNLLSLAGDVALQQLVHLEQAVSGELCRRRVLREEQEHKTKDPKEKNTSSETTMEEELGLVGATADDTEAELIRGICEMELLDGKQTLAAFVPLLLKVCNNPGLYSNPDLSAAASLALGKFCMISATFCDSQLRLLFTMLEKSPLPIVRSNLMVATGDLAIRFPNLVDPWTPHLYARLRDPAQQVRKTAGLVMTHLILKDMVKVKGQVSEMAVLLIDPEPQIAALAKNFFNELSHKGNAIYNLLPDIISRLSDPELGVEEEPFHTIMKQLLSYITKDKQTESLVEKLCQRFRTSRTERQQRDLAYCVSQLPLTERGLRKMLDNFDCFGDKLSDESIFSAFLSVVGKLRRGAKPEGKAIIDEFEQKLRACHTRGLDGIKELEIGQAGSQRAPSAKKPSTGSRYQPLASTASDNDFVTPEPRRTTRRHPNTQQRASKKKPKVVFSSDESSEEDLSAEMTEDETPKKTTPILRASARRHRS

B1: Cy5 50 bp dsDNA (dsDNA)
DNA 1: GGTGTGACAGGGTGTGACAGGGTGTGACAGGGTGTGACAGGGTGTGACAG
DNA 2: CTGTCACACCCTGTCACACCCTGTCACACCCTGTCACACCCTGTCACACC
B1: the binding signal was ~4 fold lower affinity than CI.
